This note sets out measurements from the nanobody polyreactivity screen of Harvey et al. (2022).

The data set is described as follows: yeast display, Sf9 membrane polyspecificity reagent, FACS + sequencing; frameworks hold sequencing errors. In a few lines:
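Using colony PCR, genes from sorted yeast display clones were amplified, then sequenced on MiSeq at 2 × 250 and filtered by CDR length. The clones had been stained with 10% biotinylated, detergent-solubilized Sf9 membrane reagent for 1 hour at 4 °C and sorted by FACS into low and high (top ~1%) gates on anti-HA and streptavidin fluorescence. Polyreactivity labels come from the gate of origin.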
On to “QVLLVESGGGLVQAGGSLRLSCAASGAIFRGYVMGWYSQAPGKERELVAAISYSGGATYYADSVKGRFTLSRDNAKNTVYVQMNSLKPEDTAVYYCAAYRYRYPYRLYDYWGQGTQGTVSS”, for which the “polyreactivity (PSR sort gate)” value is reported as “high polyreactivity”.
“QVLLVESGGGLVQAGGSLRLSCAASGRIFDDYAMGWYRQAPGKESELVAAITSGGRTYYADSVKGRFTISRDNAKNTVYLKMHSLKPDDTAVYYCAAQYGWFYEFVYWGQGTPVTVSS”: the “polyreactivity (PSR sort gate)” value is “high polyreactivity”.
For the sequence “QVLLVESGGGLVQAGGSLRLSCAATGSTFIRNAMGWYSQAPGKERELVAVISSGGSTYYADSVKGRFTISREIAKNTVYLQMNSLKPEDTAVYYCPAGDPQKEDYWGQGTQVTVSS”, the “polyreactivity (PSR sort gate)” value is “low polyreactivity”.
In the case of “QVLLVESGGGLVQAGGSLRVSCAASGRTFGGYGMGWYRQAPGKDRELVASISFSGGAGTYYADSVKGRFTISRDNATTPVYLQMNSLKPEDTAVYYCAKRYVTPTYRRYSWGQGTQETVSS” it was “high polyreactivity”; in that of “QVNLVESGGGLVLAGGSLRLSCAASGRIYRRNTMGWYRPAPGKERELVAAITSSGGSTYADSVKGRFTISRDNAKNTVYLQMNSLKPEDTAVYYCDTYVAYHRGYRTYDHWGQGTQVTVSS”, “low polyreactivity”; in that of “QVNLVESGGGLVLAGGSLRLSCAASGVTYGNNAMGWYRQAPGKEREFVATISRRGGSTYYADSVMGRFTISRDNAKNTVYLQMNRLKPEDTAVYYCDVDRAGIKFAAGYDYWGQGTQVTVSS”, “high polyreactivity”.
Regarding “QVPHVESGGGLVQAGGSLRLSSAASGFIHKSYTMGWYRQAPGKERELVAAISRSGASKYYAYSVKGRFTISRDNAKNTVYLQMNSLKPEDTAVYYCNRRRHNIGTGEYNYWGQGTQVTVSS”, the “polyreactivity (PSR sort gate)” value is given as “high polyreactivity”.
The same measure for “QVPLVESGGGLVQAGGSLRLSCAASGFIFYANAMGWYRQAPGKERELVAAISWDGGRTYYADSVKGRFTISRDNAKNTVYLQMNSLKPDDTAVYSCNALATDLDYWGQGTQVTVSS”: “low polyreactivity”; for “QVPLVESGGGLVQAGGSLRLSCAASGSIFQLYAMGWYRQAPGKEREFVAAITRSGGRTYYADSVKGRFTISRDNAKNTVYIQMNSLKPEDTAVYYCAADWVRNVYYRGYDYWGQGPQVTVSS”: “high polyreactivity”; for “QVPLVESGGGLVQAGGSLRLSCAASGSIFWTYTIGWYRKAPGKERELVAAITSSGSTNFADSVKGRFTISRDNAKKTVYLQMNSLKPADTAVYYCAADPEYRGYQRYDYWGQGTQVTVSS”: “low polyreactivity”.
As to “QVPLVESGGGLVQAGGSLRLSCAASGSTFSGYAMGWYRQAPGKERELVATITSTGSTNYADSVKGRFTISRDNAKNTVYLQMNSLKPEDTAVYYCNARYLFVERYFLHYASVRYDYWGQGTQVTVST”, the “polyreactivity (PSR sort gate)” value is given as “low polyreactivity”.
As for “QVPLVESGGGLVQAGGSLRLSCAASGSTLAANAMGWYRQAPGKERELVAAIDGGGSTYYADSVKGRFTISRDNAKNTVYLQMNILKPDDTAVYYCATPYVWTITQKKYDYWGQGTQVTVSS”, the “polyreactivity (PSR sort gate)” value is recorded as “low polyreactivity”.
In the case of “QVPLVESGGGLVQAGGSLRLSCDASGSTFFPNAMGWYRQAPGKEREFVAAISWSGGRTYYADSVKGRFTISRDNAKNTVYLQMNSLKPEDTAVYYCAARLYTVRYGYWGQGTQVTVSS” it was “high polyreactivity”; in that of “QVPLVESGGGLVQAGRSLRLSCAASGITFRHNTMGWYRQAPGKERELVSTNYADSVKGRFTFSRDNAKNTVYLQMNSLKPEDTAVYYCNADGTFESDYWGQGTQVTVSS”, “low polyreactivity”; in that of “QVPLVESGRGLVQAGGSLRLSCAASGFIFKYYAMGWYRQAPGKEGELVASISSSGSSTYYADSVKGRFTISRDNAKNTVYLQMNSLKAEDTAVNYCNTVTYGPSAYDYLGQGTQVTVSS”, “low polyreactivity”.
The same measure for “QVPMQESGGGLVQADGRLSLSCAASGSIFGYYYMGWYRQAPGKDRELVATINICGITNYADSVKGRFTISRDNAKNTVYLQMNSLKPDATAVYYCAADEYAQRDLGYWGQGPQVTVSS”: “low polyreactivity”; for “QVQHEESGGGIVQAGGSLRLSSAASGRTFKYYDMGWFRQALGKERELVATISSSDSTNYADSVKGRFTISRDNAKNTVYLQLNSLKPEDTAVYYCNADFKLIYVFDYWGQGSQVTVSS”: “high polyreactivity”.
On to “QVQHEESGGGLFQAGGSLRLICAASGSIFDYYAMGWYRQAPGKERELVSTYYADSVKVRFTISRDNAKNTVYLQLNSLKPEDTAVYFCAKDRGTTGIPDGPAASLYGYVYWGQGTQVTVSS”, for which the “polyreactivity (PSR sort gate)” value was “low polyreactivity”.
The same measure for “QVQHEESGGGLVQAGGSLRLSCAASGLILFYNDMGWYRQAPGNERELVSVITSGGRTYYADSVKGRFTISRDIAKNTVYLQMNSLKPEDTAVYYCAATYGHPTTYCEGWRYGYWGQGTQVTVSS”: “low polyreactivity”.
In the case of “QVQHEESGGGLVQAGGSLRLSCAASGRIFPVNAMGWSRKAPGKERELLAAITRNGGSTYYADSVKGRFTISRDNAKNTVYLQMNSLKPEDTAVSYCAVRVVYGPAWAKMYYWGQGTQVTVSS” it was “high polyreactivity”.
In the case of “QVQHEESGGGLVQAGGSLRLSCAASGSIFRGNAMGWYRQAPGNERELVAAITRSGGRTYYADSVKGRFTISRDNAKNTVYLQMNSLKPEDTAVYYCAADYPYGSPTHFDYWGPGTQVTVSS” it was “high polyreactivity”; in that of “QVQHEESGGGLVQAGGSLRLSCAASGSIFTPTPKGCYRQAPGKERELVAAISSSSDRTYYADSVKGRFTISRDNAKNTVYLEMNSLKPEDTAVYFCAAYAQKRYYWGQGTQVNVSS”, “high polyreactivity”.
In the case of “QVQHVDSAGGIVQAGGILRLSCAASGPTFGKYAMGWYRQQHGKERELVATITRTARTNYADSVKGRFTSSRDNAKNTVYLQMNSRKPEDTAVYYCDAPWRYTFPPQVYGQSYGYWGQGTQVTVSS”, the “polyreactivity (PSR sort gate)” value is “high polyreactivity”.
In the case of “QVQHVDSGAGLVQAGGSLRLRCSASGLILKDYAMGWSIQPPGKERELVAAISTSAGTTYYADSVKGRFTISRDNAKNTVYLQMKSQKPEETAVYYCAAGYLPYYIRYYHPVTVDYDYWGQGTQVTVSS” it was “low polyreactivity”; in that of “QVQHVDSGGGLVQAGGSLRLSCAASGSTFSLNAMGWYRQAPGKERELVAAISSGDSTNYADSVKGRFTISRDNAKNTVYLQMNSVKPEDTAVYYCAVEVYYTGFYYSPYAYDYWGQGTQVTVSS”, “low polyreactivity”.
The same measure for “QVQHVESARGLVQAGGSLRLSCAASGRTFFSYAMGGYRQAPGKERELVAAITSGGTTYYADSVKGRFTISRDNAKNTVYLQMNSLKPEDTAVYYCAVLGLGQKRGRAFLFPYDYWGQGTQVTVSS”: “high polyreactivity”; for “QVQHVESCGGLVQAGGSLRLSCAASGFTFASNVMGWYRQAPGKERDLVAAITSGASTNYADSVKGRFTISRDNAKNTFYLQMNSLKPEDTAVYYCAAGRQWYVFYEFDYWGQGTQVTVSS”: “high polyreactivity”.
In the case of “QVQHVESCGGLVQAGGSLRLSCADSGRIFGDYVMGWYRQAPGKERELVASIDTSGGSTYDADSVKGGFTISRDIAKNTVYLQMNSVKPEDSAVYYCAAERKYFVFVYYQGWYDYWGQGTQVTVSS” it was “low polyreactivity”.
As to “QVQHVESCGGLVQAGGSLRLSCDASGSTFYYYAMGWSRQGPGKERELVAAISLGGGSTYYADSVKGRFTISRDNAKNTVYLHMNSLKPEDSAVYYCAARRVGGGFYTWRNPAYEYWGQGTQVTVSS”, the “polyreactivity (PSR sort gate)” value is “high polyreactivity”.
The same measure for “QVQHVESGAGLVQAGGSLRLSCAASGNTINFYAMGWYRQPPGKESELVASITSGGGTNYADSVKGRFTISRDNAKNTVYLQMNSLKPEDTAVYYCAAQFYDHFRYHFDWGQGTQVTVSS”: “low polyreactivity”; for “QVQHVESGGALVQAGGSLRLSCADSGRTFIFYAMGWYRQAPGKETELVASTSSGGSTNYADSVKGRFTISRDNAKNTVYLQMNILKPEDTAVYYCATRQYLYYSRGYGYWGQGTKVTVSS”: “low polyreactivity”.
The same measure for “QVQHVESGGCLLQAGGSLRLSCAASGSIFEPYTMGWYRQAPGKERELVAAITGSGGSTFYADSVKGRFTISRDNAKNTVYLQMNSLKPEVTALYYCNAYAYPYTDVDYWVQGTQVTVSS”: “low polyreactivity”; for “QVQHVESGGCLVQAGGSLRLSCAASGRIFRGYAMGWYRQAPGKERELVAAISSRGSTYYADSVKGRFTNSRDNAKNTVYLQMNSLKPEDTAVYYCAKSEYARLSGFRYRTGYNYWGQGTQVTVSS”: “high polyreactivity”.
Regarding “QVQHVESGGCLVQAGGSRRLSCAASVSIFIPNAMGWSRQAHGKERELVAAISWSGASTYYADSVKRRFTISRDNAKNTVYLQMISLKPEDTAVYYCAAYYAYRRGYDYWGQGTQVTVSS”, the “polyreactivity (PSR sort gate)” value was “high polyreactivity”.
In the case of “QVQHVESGGCLVQAGRSLRLSCAASGRTFFPYGMGWDRQAPAKEREFVATISWSGGSTHYADSVKGRFTISRDNAKYTVYLEMNSLKPEDTAVYFCAAGNSLYWYNSGNYWGQGTQVTVSS” it was “low polyreactivity”.
Turning to “QVQHVESGGGILQAGRSLRLICAASGRLYLSNVMAWNRQAPGTERQLVAAITGRGSSTYYADSVKGRFTISRDNAKNTVYLLINSLKPEDSAVYSCAKRLPYSSGYEYWGQGTQVTVSS”, the “polyreactivity (PSR sort gate)” value is “high polyreactivity”.
In the case of “QVQHVESGGGIVQAGGSLRLSCAASGHIFFYYTMGWYRQAPGKERELVAGITIGGSTNYADSVKGRFTISRDNAKNTVYLQMNSLKPEDTAVYYCNVVKYVYIYSYWEYYYWGQGTQVTVSS”, the “polyreactivity (PSR sort gate)” value is “low polyreactivity”.
Regarding “QVQHVESGGGIVQAGGSLRLSCAASGITFSRKAMGRYRQATGKERELVATITSGGSTNYADSVKGRFTISRDNAKNTVYLQMNRLKPEDTAVYYCNAVWNTFISGRSYDYWGQGTQVTVSS”, the “polyreactivity (PSR sort gate)” value is on record as “low polyreactivity”.
The same measure for “QVQHVESGGGIVQAGGSLRLSCAASGSTFFGNGMGWYRQAPGKERELVAAISGGGSTHYADSVKGRFTSSRDNAKNTVYVQMNSLKPEDTAVYYCSPSRDTVGRGPIQRDYWGQGTQVTVSS”: “low polyreactivity”.
The same measure for “QVQHVESGGGLDQAGGSLRLSCAASGRIYCTNAMGWYRQAPGKESELVADITSGGSTNYADSVKGRFSISRDNAKNTVYLQMTSLKPEDTAVYYCAADVIGDLRWYRDEYWGQGTQVTVAS”: “low polyreactivity”; for “QVQHVESGGGLDQAGGSLRLSCAASGRTFAPYAMGWYRQAPGKEREFVAGITWSSSSTYADSVKGRFTISRDNAKNTVYVQMNSLKPDDPAVYYCAARHAKGGNRHYYWGQGTQVTVSS”: “high polyreactivity”.
